± gives the standard error. Variants at the floor of the assay were thinned out.
B1: glmS ribozyme (parent)
chain: AUAAAAGCGCCAGAACUACAGAAAUGUAGUUGACGAGGAGGAGGUUUAUCGAAUUUUCGGCGGAUGCCUCCAAA

Assays:
Settings in all cases: with glucosamine-6-phosphate
glucosamine-6-phosphate [1] = variants of: B1; assay: self-cleavage kobs at 40 uM GlcN6P; higher = faster cleavage; RNA array
In short: (§1)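 kcat and KM were obtained from weighted Michaelis–Menten fits across concentrations of kobs values. Those came from one- or two-exponential decay fits to per-tile medians normalised to baseline and to non-cleaving reference variants. The variants were barcoded ribozymes transcribed in situ by E. coli RNA polymerase on sequenced MiSeq chips and tracked through a hybridised Cy3 probe at 37 °C, with 40 μM to 10 mM glucosamine-6-phosphate in HEPES/KCl/Mg(OAc)2 buffer flowed in.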

glucosamine-6-phosphate [2] = variants of: B1; assay: self-cleavage kobs at 10000 uM GlcN6P; higher = faster cleavage; RNA array
In short: as §1

glucosamine-6-phosphate [3] = variants of: B1; assay: self-cleavage kobs at 160 uM GlcN6P; higher = faster cleavage; RNA array
In short: as §1

glucosamine-6-phosphate [4] = variants of: B1; assay: self-cleavage kobs at 640 uM GlcN6P; higher = faster cleavage; RNA array
In short: as §1

glucosamine-6-phosphate [5] = variants of: B1; assay: self-cleavage kobs at 2500 uM GlcN6P; higher = faster cleavage; RNA array
In short: as §1

Variant | self-cleavage kobs at 40 uM GlcN6P (glucosamine-6-phosphate [1]) [s⁻¹] | self-cleavage kobs at 10000 uM GlcN6P (glucosamine-6-phosphate [2]) [s⁻¹] | self-cleavage kobs at 160 uM GlcN6P (glucosamine-6-phosphate [3]) [s⁻¹] | self-cleavage kobs at 640 uM GlcN6P (glucosamine-6-phosphate [4]) [s⁻¹] | self-cleavage kobs at 2500 uM GlcN6P (glucosamine-6-phosphate [5]) [s⁻¹]
A36C U49G A53G | 4.33e-05 ± 1.4e-05 | 0.00107 ± 0.00018 |  |  | 
A33G C34U C68U | < 1e-05 |  |  |  | 
C34A G62C | < 1e-05 | < 1e-05 | < 1e-05 | < 1e-05 | < 1e-05
A33G A48G C71U | < 1e-05 | < 1e-05 | < 1e-05 |  | < 1e-05
C34G G40A U55G | < 1e-05 |  |  |  | 
A33U G43U | < 1e-05 | < 1e-05 | < 1e-05 |  | < 1e-05
G35A G43U | < 1e-05 | < 1e-05 | < 1e-05 | < 1e-05 | < 1e-05
G35U G37C G40U U56A U65A | < 1e-05 |  |  |  | 
G35U A39G | < 1e-05 | < 1e-05 | < 1e-05 | < 1e-05 | < 1e-05
G35C C61G C68G | 7.74e-05 ± 3e-05 |  |  |  | 
A36C G41C U54G G66C C68G | < 1e-05 |  |  |  | 
A33C G59C | < 1e-05 | < 1e-05 | < 1e-05 | < 1e-05 | < 1e-05
G35A C68A | < 1e-05 |  | < 1e-05 | < 1e-05 | < 1e-05
A33G C61U | < 1e-05 | < 1e-05 |  |  | 
A33G C61G | < 1e-05 | < 1e-05 | < 1e-05 | < 1e-05 | 
A33C G43C C58A U69A | < 1e-05 | < 1e-05 |  | < 1e-05 | 
C34U U45A | < 1e-05 | < 1e-05 | < 1e-05 | < 1e-05 | < 1e-05
C34U U65A C67G | 0.000176 ± 7.1e-05 |  |  |  | 
G35C G63A | < 1e-05 | < 1e-05 | < 1e-05 | < 1e-05 | 
C34U G38U | < 1e-05 | < 1e-05 | < 1e-05 | < 1e-05 | 
A33G C58U | < 1e-05 | < 1e-05 |  |  | < 1e-05
A33G C58A | < 1e-05 | < 1e-05 |  |  | 

Variant | self-cleavage kobs at 40 uM GlcN6P (glucosamine-6-phosphate [1]) [s⁻¹] | self-cleavage kobs at 10000 uM GlcN6P (glucosamine-6-phosphate [2]) [s⁻¹] | self-cleavage kobs at 160 uM GlcN6P (glucosamine-6-phosphate [3]) [s⁻¹] | self-cleavage kobs at 640 uM GlcN6P (glucosamine-6-phosphate [4]) [s⁻¹] | self-cleavage kobs at 2500 uM GlcN6P (glucosamine-6-phosphate [5]) [s⁻¹]
A33G G44U C67U | < 1e-05 | < 1e-05 |  |  | 
G35C A48C | < 1e-05 | < 1e-05 | < 1e-05 | < 1e-05 | < 1e-05
G35C A48U | < 1e-05 | < 1e-05 |  |  | < 1e-05
A33U A64U | < 1e-05 | < 1e-05 |  | < 1e-05 | 
A33U A42U C61U | < 1e-05 |  |  |  | 
C34U U55G C71U | < 1e-05 |  |  |  | 
G35C G62A | < 1e-05 | < 1e-05 | < 1e-05 | < 1e-05 | < 1e-05
G35A C50G U55A C61G | 0.000205 ± 5.1e-05 | 0.000255 ± 4e-05 |  |  | 
G35C G59A | < 1e-05 |  | < 1e-05 | < 1e-05 | < 1e-05
A36C C58U | < 1e-05 | < 1e-05 |  | < 1e-05 | 
A33U A53U A64U | < 1e-05 | < 1e-05 |  |  | 
C34G A53U G63U A64G | < 1e-05 | < 1e-05 |  |  | 
A33C A64C C68U | < 1e-05 | < 1e-05 | < 1e-05 | < 1e-05 | < 1e-05
A33U A36C C58G U69C | 4.07e-05 ± 2e-05 |  | 7.32e-05 ± 1.9e-05 |  | 
G35U G66C C67U | < 1e-05 |  |  |  | 
G35C G59U C61U | < 1e-05 | < 1e-05 | < 1e-05 | < 1e-05 | < 1e-05
G35C A39G U49G C50U | < 1e-05 | < 1e-05 |  | < 1e-05 | < 1e-05
A33G G41A | < 1e-05 | < 1e-05 | < 1e-05 |  | 
A33G G41U | < 1e-05 | < 1e-05 | < 1e-05 | < 1e-05 | 
G35C C58A | < 1e-05 | < 1e-05 |  | < 1e-05 | 
A33C G40C | < 1e-05 |  | < 1e-05 | < 1e-05 | 
A33C G51A | < 1e-05 | < 1e-05 |  |  | < 1e-05

Variant | self-cleavage kobs at 40 uM GlcN6P (glucosamine-6-phosphate [1]) [s⁻¹] | self-cleavage kobs at 10000 uM GlcN6P (glucosamine-6-phosphate [2]) [s⁻¹] | self-cleavage kobs at 160 uM GlcN6P (glucosamine-6-phosphate [3]) [s⁻¹] | self-cleavage kobs at 640 uM GlcN6P (glucosamine-6-phosphate [4]) [s⁻¹] | self-cleavage kobs at 2500 uM GlcN6P (glucosamine-6-phosphate [5]) [s⁻¹]
C34U A42C | < 1e-05 | < 1e-05 |  | < 1e-05 | < 1e-05
A33C G60U | < 1e-05 | < 1e-05 | < 1e-05 | < 1e-05 | 
G35U G41U C70U | < 1e-05 | < 1e-05 |  |  | 
A33U U46A U47G | < 1e-05 |  |  |  | 
C34A U45C | < 1e-05 | < 1e-05 | < 1e-05 | < 1e-05 | < 1e-05
A33U U49C | < 1e-05 | < 1e-05 | < 1e-05 | < 1e-05 | 
A36C C50A G62C | < 1e-05 |  |  |  | 
G35U G66U | < 1e-05 | < 1e-05 | < 1e-05 | < 1e-05 | < 1e-05
G35U U46G | < 1e-05 | < 1e-05 | < 1e-05 | < 1e-05 | < 1e-05
G35A G40C | < 1e-05 | < 1e-05 | < 1e-05 | < 1e-05 | < 1e-05
G35C G38C C58A | < 1e-05 |  | < 1e-05 |  | < 1e-05
G35C G44A | < 1e-05 | < 1e-05 |  |  | 
C34G G38A C58U | < 1e-05 |  |  |  | 
C34A G40U G66A | < 1e-05 | < 1e-05 | < 1e-05 |  | 
A33U A42C U47G U54A | < 1e-05 | < 1e-05 |  | < 1e-05 | < 1e-05
A33U A53U C61A U69A | < 1e-05 |  |  |  | 
G35A U56A G63A | < 1e-05 | < 1e-05 |  |  | 
G35C G40A | < 1e-05 | < 1e-05 | < 1e-05 | < 1e-05 | < 1e-05
G35A U47C | < 1e-05 |  | < 1e-05 | < 1e-05 | < 1e-05
A36C U45G U65C | < 1e-05 |  |  |  | < 1e-05
C34U U54A | < 1e-05 | < 1e-05 |  | < 1e-05 | 
C34G C50U | < 1e-05 | < 1e-05 |  | < 1e-05 | 

Variant | self-cleavage kobs at 40 uM GlcN6P (glucosamine-6-phosphate [1]) [s⁻¹] | self-cleavage kobs at 10000 uM GlcN6P (glucosamine-6-phosphate [2]) [s⁻¹] | self-cleavage kobs at 160 uM GlcN6P (glucosamine-6-phosphate [3]) [s⁻¹] | self-cleavage kobs at 640 uM GlcN6P (glucosamine-6-phosphate [4]) [s⁻¹] | self-cleavage kobs at 2500 uM GlcN6P (glucosamine-6-phosphate [5]) [s⁻¹]
C34G U54G | < 1e-05 | < 1e-05 | < 1e-05 | < 1e-05 | 
G35U G63U G66C C67A | < 1e-05 | < 1e-05 |  |  | 
G35C G43A | < 1e-05 |  | < 1e-05 |  | < 1e-05
A33G U65C C71A | < 1e-05 |  |  | < 1e-05 | 
G35A C67A | < 1e-05 |  | < 1e-05 | < 1e-05 | < 1e-05
G35U U54C U56G A64U C70U | < 1e-05 | < 1e-05 |  |  | 
A33G G37U U46G A52G G62A | < 1e-05 |  |  |  | 
C34U G59U | < 1e-05 | < 1e-05 | < 1e-05 | < 1e-05 | < 1e-05
C34U G59C | < 1e-05 | < 1e-05 | < 1e-05 | < 1e-05 | < 1e-05
A33C U65G | < 1e-05 |  | < 1e-05 | < 1e-05 | 
A33U G40C C71A | < 1e-05 |  |  |  | 
A33G C34A | < 1e-05 | < 1e-05 |  |  | 
C34A G35U G37A U49A U56C | < 1e-05 | < 1e-05 |  | < 1e-05 | < 1e-05
A36C C70A | 3.5e-05 ± 1.7e-05 |  | 0.000113 ± 3.7e-05 | 6.93e-05 ± 3e-05 | 
A36G A48C | < 1e-05 | < 1e-05 | < 1e-05 | < 1e-05 | 
A36G A48U | < 1e-05 | < 1e-05 | < 1e-05 | < 1e-05 | < 1e-05
A33U C61U C70U | < 1e-05 |  |  |  | < 1e-05
A36C A48C U56A | < 1e-05 |  |  |  | 
C34U G37C A53G | < 1e-05 |  |  |  | 
A33C C58A G62A | < 1e-05 |  |  |  | 
C34G G44U | < 1e-05 | < 1e-05 | < 1e-05 | < 1e-05 | 
A33C G62C | < 1e-05 | < 1e-05 |  | < 1e-05 | < 1e-05
